Assay [1] deals with T1, human GPIIb/IIIa on human platelets (human, UniProt P08514 32-1039; P05106 27-788).
T1 construct: Native receptor on gel-purified human platelets or platelets in diluted human whole blood; also called platelets in human whole blood
Briefly: flow cytometry, hybridoma supernatant on human platelets.
Description: Hybridomas were then screened for binding to human and cynomolgus monkey platelets using flow cytometry, and for binding to GPIIb/IIIa using Enzyme-linked immunosorbent assays (ELISA). To determine binding to human and money platelets, gel-purified human or monkey (cynomolgus) platelets in Tyrode's buffer were incubated with hybridoma supernatant. Following a 30 minute incubation, cells were fixed in 1% formaldehyde. Following fixation, cells were washed in Tyrode's buffer and a detection antibody was added (Jackson Immunoresearch goat anti-mouse IgG-PE conjugated). Antibody binding was detected by flow cytometry.

Assay [2] deals with T1, human GPIIb/IIIa on human platelets. Briefly: flow cytometry, protein spiked in diluted (1:50) human whole blood, FITC-anti-FVII on CD42b-stained platelets.
Assay [3] concerns the target T2, mouse platelets (mouse GPIIb/IIIa) (mouse, UniProt Q9QUM0 32-1033; O54890 26-787).
T2 construct: whole, on cells; the receptor is inferred from the antibody's target
Briefly: binding to platelets in mouse blood (method not detailed; flow cytometry implied).

The results in this text go back to patent US20160115467A1 (Biogen, published 2016).

Where a chain is given by its changes, count along the chain named.

T2 sequence (Q9QUM0 32-1033, chain 1 of 2): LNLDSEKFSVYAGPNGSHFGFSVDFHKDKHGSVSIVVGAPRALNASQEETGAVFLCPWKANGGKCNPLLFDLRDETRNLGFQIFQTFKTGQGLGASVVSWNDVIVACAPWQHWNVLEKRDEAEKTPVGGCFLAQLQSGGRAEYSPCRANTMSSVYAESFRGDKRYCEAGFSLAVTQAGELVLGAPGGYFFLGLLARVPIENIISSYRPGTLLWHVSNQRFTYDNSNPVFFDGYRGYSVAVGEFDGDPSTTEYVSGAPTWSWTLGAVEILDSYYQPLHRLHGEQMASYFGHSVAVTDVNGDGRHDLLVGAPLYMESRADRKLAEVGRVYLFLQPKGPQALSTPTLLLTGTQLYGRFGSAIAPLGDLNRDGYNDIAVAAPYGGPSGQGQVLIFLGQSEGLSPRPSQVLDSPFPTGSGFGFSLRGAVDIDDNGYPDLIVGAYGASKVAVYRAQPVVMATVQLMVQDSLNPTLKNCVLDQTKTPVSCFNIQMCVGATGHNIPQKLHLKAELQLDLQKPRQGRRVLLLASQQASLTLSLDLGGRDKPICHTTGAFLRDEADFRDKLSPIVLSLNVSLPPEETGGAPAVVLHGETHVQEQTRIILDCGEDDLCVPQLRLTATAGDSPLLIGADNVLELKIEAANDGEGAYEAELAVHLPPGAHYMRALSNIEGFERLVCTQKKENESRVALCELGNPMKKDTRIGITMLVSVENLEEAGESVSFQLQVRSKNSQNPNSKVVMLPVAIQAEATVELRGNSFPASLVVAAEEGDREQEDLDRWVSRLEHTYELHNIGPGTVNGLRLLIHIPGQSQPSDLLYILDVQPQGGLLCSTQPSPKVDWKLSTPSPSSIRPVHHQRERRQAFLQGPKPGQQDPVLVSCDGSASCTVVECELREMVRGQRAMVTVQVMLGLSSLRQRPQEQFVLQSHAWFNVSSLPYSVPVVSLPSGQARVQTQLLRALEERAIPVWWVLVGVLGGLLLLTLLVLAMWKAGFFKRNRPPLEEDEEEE
T2 sequence (O54890 26-787, chain 2 of 2): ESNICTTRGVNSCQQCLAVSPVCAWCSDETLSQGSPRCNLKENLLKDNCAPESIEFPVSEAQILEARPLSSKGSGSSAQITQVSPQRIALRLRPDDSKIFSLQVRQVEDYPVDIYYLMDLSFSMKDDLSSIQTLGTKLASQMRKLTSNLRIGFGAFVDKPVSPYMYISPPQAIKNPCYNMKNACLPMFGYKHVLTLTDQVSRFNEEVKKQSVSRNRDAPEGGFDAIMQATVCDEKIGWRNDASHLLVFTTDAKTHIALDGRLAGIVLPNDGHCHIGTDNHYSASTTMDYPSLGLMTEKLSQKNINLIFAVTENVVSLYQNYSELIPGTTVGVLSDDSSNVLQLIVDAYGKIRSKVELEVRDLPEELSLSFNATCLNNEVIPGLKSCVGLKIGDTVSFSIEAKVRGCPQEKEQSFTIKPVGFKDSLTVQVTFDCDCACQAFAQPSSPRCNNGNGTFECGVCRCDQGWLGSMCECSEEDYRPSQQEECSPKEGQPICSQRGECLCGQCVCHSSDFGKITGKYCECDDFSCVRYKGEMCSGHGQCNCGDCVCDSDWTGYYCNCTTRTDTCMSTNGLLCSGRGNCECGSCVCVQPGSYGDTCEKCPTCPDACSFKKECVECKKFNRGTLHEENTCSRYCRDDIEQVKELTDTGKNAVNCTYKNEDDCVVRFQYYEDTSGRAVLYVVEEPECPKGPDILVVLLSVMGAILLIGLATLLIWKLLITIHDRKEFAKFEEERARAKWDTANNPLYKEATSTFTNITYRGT

B1: 28F4 (antibody, V domains shown)
VH: EVQLVESGGDLVKPGGSLKLSCAASGFTFSNYGMSWVRQTPDKRLEWVATISSGGTYTYYPDSVKGQFTIFRDNAKNTLYLQMSSLKSEDTAMYYCTRRDYDYEGFAYWGQGTLVTVS
VL: DIVLTQSPATLSVTPGDSVSLSCRASQSISNNLHWYQQKSHESPRLLIKYASHSISGIPSRFSGSGSGTDFTLSINSVETEDFGMYFCQQSNNWPFTFGSGTKLEIKR
notes: Mouse monoclonal from BALB/c hybridoma, tested as hybridoma supernatant; also called 28F4 antibody
In the case of B1, in assay [1], the binding result was “binds”.

B2: 12B2 (antibody, V domains shown)
VH: QVQLQQSGAELTKPGASVKISCKATGYTFSSYWIEWVKQRPGHGLEWIGEILPGSGITKYNDKFKGKATFTADTSSNTAYMQLSSLTSEDSAVYSCARLISYYYAMDYWGQGTSVTVSS
VL: DIQMTQTTSSLSASLGDRVTISCRASQDISNYLNWYQQKPDGTVKLLIYYTSRLHSGVPSRFSGSGSGTDYSLTISNLEQEDIATYFCQQGNTLPPTFGGGTKLEIKR
notes: Mouse monoclonal from BALB/c hybridoma, tested as hybridoma supernatant; also called 12B2 antibody
As for B2, in assay [1], the binding result is reported as “binds”.

B3: 1H6 (antibody, V domains shown)
VH: QVQLQQSGAELVRPGTSVKVSCKASGYAFTNYLIEWVKQRPGQGLEWIGVINPGSGGTNYNEKFKGKATLTADKSSSTAYMHLSSLTSDDSAVYFCARGRYEWYFDVWGAGTTVTVSS
VL: B2 VL with S30T, Q38R, N92Y, P96Y
notes: Mouse monoclonal from BALB/c hybridoma, tested as hybridoma supernatant; also called 1H6 antibody
Consider B3, for which, in assay [1], the binding result is “binds”.

B4: 38A8 (antibody, V domains shown)
VH: B3 VH with V37I, H82Q
VL: B2 VL with Q37L, T74S, N92Y, P96Y
notes: Mouse monoclonal from BALB/c hybridoma, tested as hybridoma supernatant; also called 38A8 antibody
In the case of B4, the binding result in assay [1] is listed as “binds”.

B5: rFVIIa (enzyme)
chain 1: ANAFLEELRPGSLERECKEEQCSFEEAREIFKDAERTKLFWISYSDGDQCASSPCQNGGSCKDQLQSYICFCLPAFEGRNCETHKDDQLICVNENGGCEQYCSDHTGTKRSCRCHEGYSLLADGVSCTPTVEYPCGKIPILEKRNASKPQGR
chain 2: IVGGKVCPKGECPWQVLLLVNGAQLCGGTLINTIWVVSAAHCFDKIKNWRNLIAVLGEHDLSEHDGDEQSRRVAQVIIPSTYVPGTTNHDIALLRLHQPVVLTDHVVPLCLPERTFSERTLAFVRFSLVSGWGQLLDRGATALELMVLNVPRLMTQDCLQQSRKVGDSPNITEYMFCAGYSDGSKDSCKGDSGGPHATHYRGTWYLTGIVSWGQGCATVGHFGVYTRVSQYIEWLQKLMRSEPRPGVLLRAPFP
notes: Control without targeting moiety
For the molecule B5, the binding result in assay [2] is reported as “no binding”.

B6: 28C2 (antibody, V domains shown)
VH: QVTLKASGPGIVQPSQTLSLTCSFSGFSLNTSGMGVGWIRQPSGKGLEWLAHIWWDDDKRYNPALKSRLTISKDTSNNQIFLKIASVDTADTATYYCARSHYYGTFYFDYWGQGTTLTVSS
VL: DVQITQSPSYLAASPGETITINCRASKSISKYLAWYQEKPGTTYKLLIYSGSTLQSGIPSRFSGSGSGTDFTLTISSLEPEDFAMYYCQQHIEYPWTFGGGTKLEIKR
notes: Mouse monoclonal from BALB/c hybridoma, tested as hybridoma supernatant; also called 28C2 antibody
With B6, in assay [1], the binding result was “binds”.

B7: 9D6 (antibody, V domains shown)
VH: QVTLKESGPGILQPSQTLSLTCSFSGFSLSTSGMGVGWIRQSSGKGLEWLAHIWWDDDKRYNPTLKSRLTISKDTSNNQVFLKIANMDTADIATYYCARSHYNGTFYFDFWGQGITLTVSS
VL: B6 VL with T42K, Y44N, S77T
notes: Mouse monoclonal from BALB/c hybridoma, tested as hybridoma supernatant; also called 9D6 antibody
As to B7, the binding result in assay [1] is recorded as “binds”.

B8: 18F7 (antibody, V domains shown)
VH: QVQLKESGPGLVAPSQSLSITCTVSGFSLTSYGVSWVRQPPGKGLEWLGIIWGDGSTNYHSVLKSRLSISKDNSKSQVFLKLNSLQTDDTATYYCAKQDFDVWGAGTTVTVSS
VL: DVQMIQSPFSLSASLGDIVTMTCQASQGTSINLNWFQQKPGKAPKLLIYGVSNLEDGVPSRFSGSRYGTDFTLTIGSLEDEDMATYFCLQHSYLPYTFGGGTKLEIKR
notes: Mouse monoclonal from BALB/c hybridoma, tested as hybridoma supernatant; also called 18F7 antibody
As for B8, in assay [1], the binding result is given as “binds”.

B9: 34D10 (antibody, V domains shown)
VH: EVKLVESGGGLVKPGGSLKLSCAASGFTFSAYAMSWVRQTPEKRLEWVASISSGGTTYYPDSVKRRFTISRDNARNILYLQMSSLRSEDTAMYYCTRGGDYGYALDYWGQGTSVTVSS
VL: ENVLTQSPAIMSASLGEKVTMSCRASSSVNYMYWYQQKSDASPKLWIYYTSNLAPGVPARFSGSGSGNSYSLTISSMEGEDAATYYCQQFSSSPWTFGGGTKLEIKR
notes: Mouse monoclonal from BALB/c hybridoma, tested as hybridoma supernatant (detected with anti-mouse IgG); also called monoclonal antibody 34D10; 34D10 antibody
Take B9: the results for the binding result in assay [1] and in assay [3] were “binds” and “no binding”, respectively.

B10: 4B11 (antibody, V domains shown)
VH: B9 VH with A31S, E46A, T56N, T57I, Y59F, R65G, N73D, S83R, T96A, L105M
VL: B9 VL with S22N, Y48F, T101S
notes: Mouse monoclonal from BALB/c hybridoma, tested as hybridoma supernatant; also called 4B11 antibody
As for B10, the binding result in assay [1] is recorded as “binds”.

B11: 36A8 (antibody, V domains shown)
VH: B9 VH with K3R, A31T, S52N, S53G, T56S, R65G, S83R, T96A
VL: B9 VL with S22N, Y48F, T101S
notes: Mouse monoclonal from BALB/c hybridoma, tested as hybridoma supernatant; also called 36A8 antibody
In the case of B11, the binding result in assay [1] is listed as “binds”.
